Experimental data as given in publication PMC4072508, “Genome-Wide Prediction and Validation of Peptides That Bind Human Prosurvival Bcl-2 Proteins” (PLoS Computational Biology, 2014).

T1: Bcl-w, Q92843
T1 chain: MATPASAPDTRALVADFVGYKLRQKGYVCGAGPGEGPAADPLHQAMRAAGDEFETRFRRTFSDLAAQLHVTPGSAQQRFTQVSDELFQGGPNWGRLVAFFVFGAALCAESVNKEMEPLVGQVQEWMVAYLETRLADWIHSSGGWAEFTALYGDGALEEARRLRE

T2: Mcl-1, Q07820
T2 chain: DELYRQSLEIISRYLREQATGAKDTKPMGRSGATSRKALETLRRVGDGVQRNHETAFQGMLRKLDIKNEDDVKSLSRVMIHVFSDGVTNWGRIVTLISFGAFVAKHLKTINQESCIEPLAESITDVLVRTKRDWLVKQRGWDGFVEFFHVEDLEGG

T3: Bfl-1, Q16548
T3 chain: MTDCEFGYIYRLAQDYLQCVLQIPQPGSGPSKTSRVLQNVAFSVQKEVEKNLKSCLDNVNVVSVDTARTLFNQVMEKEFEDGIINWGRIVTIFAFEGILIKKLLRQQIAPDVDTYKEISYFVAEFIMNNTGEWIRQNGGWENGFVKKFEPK


Key:
Assay in all cases: peptide SPOT array, c-Myc-tagged receptor at 1 uM or 100 nM, anti-c-Myc-Cy3
Bcl-w, Q92843 = molecular target: T1, Bcl-w, Q92843
Bcl-2, P10415 = molecular target: Bcl-2, P10415
Mcl-1, Q07820 = molecular target: T2, Mcl-1, Q07820
Bcl-xL, Q07817 = molecular target: Bcl-xL, Q07817
Bfl-1, Q16548 = molecular target: T3, Bfl-1, Q16548

Chain of Bcl-2, P10415 (P10415 1-217): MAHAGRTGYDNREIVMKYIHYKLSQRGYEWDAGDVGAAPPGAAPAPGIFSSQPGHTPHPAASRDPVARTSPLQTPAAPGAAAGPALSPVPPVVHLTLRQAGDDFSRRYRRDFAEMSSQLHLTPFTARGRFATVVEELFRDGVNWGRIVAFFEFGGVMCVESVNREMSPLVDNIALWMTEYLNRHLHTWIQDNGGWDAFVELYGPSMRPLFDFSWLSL
Chain of Bcl-xL, Q07817 (Q07817 1-209): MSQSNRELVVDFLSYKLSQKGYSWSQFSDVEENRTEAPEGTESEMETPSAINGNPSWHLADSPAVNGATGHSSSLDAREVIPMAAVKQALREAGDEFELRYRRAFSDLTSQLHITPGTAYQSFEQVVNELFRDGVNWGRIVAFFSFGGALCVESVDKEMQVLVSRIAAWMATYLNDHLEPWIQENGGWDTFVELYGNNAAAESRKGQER

Binder | SPOT signal as a fraction of Bim BH3's signal on the same receptor and array (Bcl-w, Q92843) | SPOT signal as a fraction of Bim BH3's signal on the same receptor and array (Bcl-2, P10415) | SPOT signal as a fraction of Bim BH3's signal on the same receptor and array (Mcl-1, Q07820) | SPOT signal as a fraction of Bim BH3's signal on the same receptor and array (Bcl-xL, Q07817) | SPOT signal as a fraction of Bim BH3's signal on the same receptor and array (Bfl-1, Q16548)
FVGCEFLHHLLREWGEELQAVLRSSQ [GEMIN4] | 0.02 | 0.01 | 0.04 | 0.04 | 0.02
RIEERKAIIGLYNYAHEMTHGASDRE [NCKAP1] | 0.03 | 0.02 | 0.03 | 0.04 | 0.03
AEHEDDLPENLSEIADLWNSPTRTHG [CDH23] | 0.02 | 0.01 | 0.02 | 0.02 | 0.01
EVKQSMSSQSLDKAAEDMPEAEQDLE [APBA1] | 0.02 | 0.01 | 0.02 | 0.02 | 0.02
FYRRRDISNTLIMLADKHAKEIEEES [MTA3] | 0.09 | 0.03 | 0.07 | 0.15 | 0.08
EERAQNVTRLLRKQAEEVNTEWEKLN | 0.04 | 0.01 | 0.02 | 0.04 | 0.04
FSSDAVTSRVLLNVGQEVIAVVEENK [MOV10L1] | 0.02 | 0.01 | 0.02 | 0.03 | 0.02
GFANHDVVEVLRNAGQVVHLTLVRRK [INADL] | 0.31 | 0.12 | 0.34 | 0.33 | 0.38
IGQRQTVVRTLNATGEEIIQQSSKTD | 0.02 | 0.01 | 0.02 | 0.03 | 0.03
TNISWRACDHLRCIACDFLVVSYDDY [C8orf37] | 0.15 | 0.01 | 0.08 | 0.08 | 0.02
RDASKILVDALQKFADDMYSLYGGNA [ATP6AP2] | 0.05 | 0.01 | 0.02 | 0.03 | 0.02
CSTNNPSQAKLRRELDESLQVAERLT [CLU] | 0.02 | 0.01 | 0.02 | 0.03 | 0.02
TIHFNQRGTRLASSGDDLRVIVWDWV [DCAF8L1] | 0.03 | 0.02 | 0.04 | 0.06 | 0.04

Results, then the binder that gave them:

SPOT signal as a fraction of Bim BH3's signal on the same receptor and array (Bcl-w, Q92843) | SPOT signal as a fraction of Bim BH3's signal on the same receptor and array (Bcl-2, P10415) | SPOT signal as a fraction of Bim BH3's signal on the same receptor and array (Mcl-1, Q07820) | SPOT signal as a fraction of Bim BH3's signal on the same receptor and array (Bcl-xL, Q07817) | SPOT signal as a fraction of Bim BH3's signal on the same receptor and array (Bfl-1, Q16548) | Binder
0.15 | 0.03 | 0.03 | 0.12 | 0.08 | KRALIQCAKDIAKASDEVTRLAKEVA [VCL]
0.07 | 0.05 | 0.06 | 0.19 | 0.11 | CLKRCRSAQVLHLYGATYSADGEDRA [NLRP12]
0.75 | 0.19 | 0.39 | 0.61 | 0.65 | AIKPVSFIRDLKKIARHFRFGNQEDA [USP36]
0.18 | 0.1 | 0.13 | 0.19 | 0.38 | FEKLRMIAKEIRHVGRMASVNMDPAL [RAPGEF2]
0.03 | 0.01 | 0.17 | 0.035 | 0.02 | DTIYQGFAECLIRLGDSMGRGGELET [NRN1L]
0.01 | 0.01 | 0.02 | 0.02 | 0.02 | TIRNGHDSELLRSLAEELPLEQGFTI [PLCD4]
0.02 | 0.01 | 0.04 | 0.04 | 0.03 | LGDGPKLVRELFRVAEEHAPSIVFID [PSMC1]
0.03 | 0.02 | 0.04 | 0.07 | 0.07 | MVLDPSLAEHLSHFGIDMLKMQKTDK [USP5]
0.02 | 0.01 | 0.03 | 0.02 | 0.02 | EEIIHKLAMQDRHIGDNIDHRMVRED [PXT1]
